Measurements taken from IntAct's records for PubMed 25239945.

B1: Signal peptide peptidase (Homo sapiens), Q8TCT9 (parent)
chain: MDSALSDPHNGSAEAGGPTNSTTRPPSTPEGIALAYGSLLLMALLPIFFGALRSVRCARGKNASDMPETITSRDAARFPIIASCTLLGLYLFFKIFSQEYINLLLSMYFFVLGILALSHTISPFMNKFFPASFPNRQYQLLFTQGSGENKEEIINYEFDTKDLVCLGLSSIVGVWYLLRKHWIANNLFGLAFSLNGVELLHLNNVSTGCILLGGLFIYDVFWVFGTNVMVTVAKSFEAPIKLVFPQDLLEKGLEANNFAMLGLGDVVIPGIFIALLLRFDISLKKNTHTYFYTSFAAYIFGLGLTIFIMHIFKHAQPALLYLVPACIGFPVLVALAKGEVTEMFSYEESNPKDPAAVTESKEGTEASASKGLEKKEK
partner: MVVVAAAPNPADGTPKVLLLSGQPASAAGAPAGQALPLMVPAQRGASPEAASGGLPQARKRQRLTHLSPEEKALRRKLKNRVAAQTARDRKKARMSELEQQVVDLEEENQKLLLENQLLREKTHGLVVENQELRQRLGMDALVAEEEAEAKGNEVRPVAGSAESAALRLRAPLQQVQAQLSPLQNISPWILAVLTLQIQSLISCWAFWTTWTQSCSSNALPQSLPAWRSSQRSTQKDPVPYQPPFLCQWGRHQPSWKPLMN

Variants of: B1
Conditions: with XBP1, P17861-1

Row | Variant | effect of a mutation on the interaction
1 | D265A | increasing interaction
